Paper doi:10.1101/2022.02.25.481886

Target: RFP-VAP27-1 (Arabidopsis) (UniProt Q8VZ95)
Experiment: FRET or BRET

Chain of UniProt Q8VZ95 (Q8VZ95 whole entry): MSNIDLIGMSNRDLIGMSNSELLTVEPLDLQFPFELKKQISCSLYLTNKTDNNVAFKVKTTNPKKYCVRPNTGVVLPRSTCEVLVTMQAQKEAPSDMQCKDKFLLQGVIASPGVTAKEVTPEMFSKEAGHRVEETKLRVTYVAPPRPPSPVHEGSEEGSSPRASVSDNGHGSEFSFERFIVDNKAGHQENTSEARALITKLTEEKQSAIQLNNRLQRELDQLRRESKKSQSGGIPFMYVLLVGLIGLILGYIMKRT

- fluorescence lifetime of the GFP donor with the RFP acceptor: 2.21 ns
Substance: GFP-TraB1b (natural protein)
